Assay results reported in patent US8822165B2, “Method for producing cAMP using chimeric olfactory receptor” (Panasonic Corporation, priority 2010, dated 2014).

B1: chimeraOlfr168: Rho-myc-Olfr168 where the IC4 domain was substituted with that of the beta-1 adrenergic receptor (protein)
chain: MNGTEGPNFYVPFSNKTGVVEQKLISEEDLEFMEKWNQSSSDFILLGLLPQNQTGLLLMMLIILVFFLALFGNSAMIHLIRVDPRLHTPMYFLLSQLSLMDLMYISTTVPKMAFNFLSGQKNISFLGCGVQSFFFLTMAGSEGLLLASMAYDRFVAICHPLHYPIRMSKIMCLKMIIGSWILGSINSLAHSIYALHIPYCHSRSINHFFCDVPAMLPLACMDTWVYEYMVFVSTSLFLLLPFLGITASYGRVLFAVFHMRSKEGKKKAFTTCSTHLTVVTFYYAPFVYTYLRPRSLRSPTEDKILTVFYTILTPMLNPIIYSLRNKDFRKAFQRLLCCARRAACRRRAAHGDRPRASGCLARAGPPPSPGAPSDDDDDDAGATPPARLLEPWAGCNGGTTTVDSDSSLDEPGRQGFSSESKV
modifications: ChimeraOlfr168
notes: Rho-myc-Olfr168 where the IC4 domain was substituted with that of the beta-1 adrenergic receptor
B2: chimeraOlfr15: IC4 domain of the Rho-myc-Olfr15 substituted with that of the beta-1 adrenergic receptor (protein)
chain: MNGTEGPNFYVPFSNKTGVVEQKLISEEDLEFMEVDSNSSSGSFILMGVSDHPHLEIIFFAVILASYLLTLVGNLTIILLSRLDARLHTPMYFFLSNLSSLDLAFTTSSVPQMLKNLWGPDKTISYGGCVTQLYVFLWLGATECILLVVMAFDRYVAVCRPLHYMTVMNPRLCWGLAAISWLGGLGNSVIQSTFTLQLPFCGHRKVDNFLCEVPAMIKLACGDTSLNEAVLNGVCTFFTVVPVSVILVSYCFIAQAVMKIRSVEGRRKAFNTCVSHLVVVFLFYGSAIYGYLLPAKSSNQSQGKFISLFYSVVTPMVNPLIYTLRNKDFRKAFQRLLCCARRAACRRRAAHGDRPRASGCLARAGPPPSPGAPSDDDDDDAGATPPARLLEPWAGCNGGTTTVDSDSSLDEPGRQGFSSESKV
modifications: ChimeraOlfr15
notes: IC4 domain of the Rho-myc-Olfr15 substituted with that of the beta-1 adrenergic receptor
B3: Rho-myc-Olfr168: Rho-tag, myc epitope tag and EC1-IC4 domains of the Olfr168, mouse olfactory receptor for 2-pentanone (protein)
chain: MNGTEGPNFYVPFSNKTGVVEQKLISEEDLEFMEKWNQSSSDFILLGLLPQNQTGLLLMMLIILVFFLALFGNSAMIHLIRVDPRLHTPMYFLLSQLSLMDLMYISTTVPKMAFNFLSGQKNISFLGCGVQSFFFLTMAGSEGLLLASMAYDRFVAICHPLHYPIRMSKIMCLKMIIGSWILGSINSLAHSIYALHIPYCHSRSINHFFCDVPAMLPLACMDTWVYEYMVFVSTSLFLLLPFLGITASYGRVLFAVFHMRSKEGKKKAFTTCSTHLTVVTFYYAPFVYTYLRPRSLRSPTEDKILTVFYTILTPMLNPIIYSLRNKEVLGAMTRVLGTFSSMKP
modifications: Rho-myc-olfr168
B4: Rho-myc-Olfr609: Rho-tag, myc epitope tag and EC1-IC4 domains of the Olfr609, mouse olfactory receptor for vanillic acid (protein)
chain: MNGTEGPNFYVPFSNKTGVVEQKLISEEDLEFMSYSNHSSTSFFLTGLPGLETVYLWLSIPLCTMYIASLAGNGLILWVVKSEPSLHQPMYYFLSMLAVTDLGLSVSTLPTMLTIYMMGVSEVALDMCLAQLFFIHTFSIMESSVLLTMAFDRVVAISSPLHYATILTNPRVASLGMVILVRSIGLHIPAPIMLKKLPYCQKRHLSHSYCLHPDVMKLACTDTRINSAYGLFVVLSTLGVDSVLIVLSYGLILYTVLSIASKTERLKALNTCVSHICSVLLFYTPMIGLSMIHRFGKWASPCSRVLLSYLHFLTPPVLNPVVYTIKTKQIRQRIWRIFRCGGRSIGHIQGH
modifications: Rho-myc-olfr609
B5: chimeraOlfr609: IC4 domain of the Rho-myc-Olfr609 substituted with that of the beta-1 adrenergic receptor (protein)
chain: MNGTEGPNFYVPFSNKTGVVEQKLISEEDLEFMSYSNHSSTSFFLTGLPGLETVYLWLSIPLCTMYIASLAGNGLILWVVKSEPSLHQPMYYFLSMLAVTDLGLSVSTLPTMLTIYMMGVSEVALDMCLAQLFFIHTFSIMESSVLLTMAFDRVVAISSPLHYATILTNPRVASLGMVILVRSIGLHIPAPIMLKKLPYCQKRHLSHSYCLHPDVMKLACTDTRINSAYGLFVVLSTLGVDSVLIVLSYGLILYTVLSIASKTERLKALNTCVSHICSVLLFYTPMIGLSMIHRFGKWASPCSRVLLSYLHFLTPPVLNPVVYTIKTKDFRKAFQRLLCCARRAACRRRAAHGDRPRASGCLARAGPPPSPGAPSDDDDDDAGATPPARLLEPWAGCNGGTTTVDSDSSLDEPGRQGFSSESKV
modifications: ChimeraOlfr 609
notes: IC4 domain of the Rho-myc-Olfr609 substituted with that of the beta-1 adrenergic receptor
B6: Rho-myc-Olfr15: Rho-tag, myc epitope tag and EC1-IC4 domains of the Olfr15, mouse olfactory receptor for cyclohexanone (protein)
chain: MNGTEGPNFYVPFSNKTGVVEQKLISEEDLEFMEVDSNSSSGSFILMGVSDHPHLEIIFFAVILASYLLTLVGNLTIILLSRLDARLHTPMYFFLSNLSSLDLAFTTSSVPQMLKNLWGPDKTISYGGCVTQLYVFLWLGATECILLVVMAFDRYVAVCRPLHYMTVMNPRLCWGLAAISWLGGLGNSVIQSTFTLQLPFCGHRKVDNFLCEVPAMIKLACGDTSLNEAVLNGVCTFFTVVPVSVILVSYCFIAQAVMKIRSVEGRRKAFNTCVSHLVVVFLFYGSAIYGYLLPAKSSNQSQGKFISLFYSVVTPMVNPLIYTLRNKEVKGALGRLLGKGRGAS
modifications: Rho-myc-Olfr15

Legend:
Assay type in all cases: cell-based
HEK293T cells [1] = test: cAMP production by Olfr168-derived receptors expressed in HEK293T cells, 2-pentanone as agonist (Experiment 2)
Procedure: (§1) Subsequently, the HEK293T cells were transfected with the above-mentioned three plasmids by a lipofection method. The HEK293T cells were incubated for 48 hours, and the β1AR consisting of the protein represented by SEQ ID NO: 03 was expressed on the cell membrane of the HEK293T cell.
(§2) The abbreviation “IBMX” means 3-isobutyl-1-methylxanthine. The IBMX is one of the phosphodiesterase inhibitors. The IBMX stabilizes cAMP, which is unstable.
The expression was conducted similarly to that of the step 2 of the reference example 1 except that the plasmid (Rho-myc-Olfr168) was used instead of the plasmid (β1AR). In this way, the Rho-myc-Olfr168 (SEQ ID NO: 49) was expressed on a cell membrane.
The concentrations of the cAMP were measured similarly to the step 3 of the comparative example 1-1 except that 2-pentanone aqueous solutions having concentrations of 30 μM, 100 μM, 300 μM, 1000 μM, and 3000 μM were used as agonists instead of the eugenol aqueous solutions.
The expression was conducted similarly to that of the step 2 of the reference example 1 except that the plasmid (chimeraOlfr168) was used instead of the plasmid (β1AR). In this way, the chimeraOlfr168 (SEQ ID NO: 51) was expressed on a cell membrane.
The concentrations of the cAMP were measured similarly to the step 3 of the comparative example 2-1.

HEK293T cells [2] = test: cAMP production by Olfr15-derived receptors expressed in HEK293T cells, cyclohexanone as agonist (Experiment 3)
Procedure: as §1, §2
The expression was conducted similarly to that of the step 2 of the reference example 1 except that the plasmid (Rho-myc-Olfr15) was used instead of the plasmid (β1AR). In this way, the Rho-myc-Olfr15 (SEQ ID NO: 58) was expressed on a cell membrane.
Instead of the eugenol aqueous solutions, the concentrations of the cAMP were measured similarly to the step 3 of the comparative example 1-1 except that cyclohexanone aqueous solutions having concentrations of 30 μM, 100 μM, 300 μM, 1000 μM, and 3000 μM were used as agonists.
The expression was conducted similarly to that of the step 2 of the reference example 1 except that the plasmid (chimeraOlfr15) was used instead of the plasmid (β1AR). In this way, the chimeraOlfr15 (SEQ ID NO: 60) was expressed on a cell membrane.
The concentrations of the cAMP were measured similarly to the step 3 of the comparative example 3-1.

HEK293T cells [3] = test: cAMP production by Olfr609-derived receptors expressed in HEK293T cells, vanillic acid as agonist (Experiment 4)
Procedure: as §1, §2
The expression was conducted similarly to that of the step 2 of the reference example 1 except that the plasmid (Rho-myc-Olfr609) was used instead of the plasmid (β1AR). In this way, the Rho-myc-Olfr609 (SEQ ID NO: 64) was expressed on a cell membrane.
Instead of the eugenol aqueous solutions, the concentrations of the cAMP were measured similarly to the step 3 of the comparative example 1-1 except that vanillic acid aqueous solutions having concentrations of 0.30 μM, 1 μM, 3 μM, 10 μM, and 30 μM were used as agonists.
The expression was conducted similarly to that of the step 2 of the reference example 1 except that the plasmid (chimeraOlfr609) was used instead of the plasmid (β1AR). In this way, the chimeraOlfr609 (SEQ ID NO: 69) was expressed on a cell membrane.
The concentrations of the cAMP were measured similarly to the step 3 of the comparative example 4-1.

| Molecule | concentration of the cAMP (HEK293T cells [1]; 2-pentanone 0 μM) | concentration of the cAMP (HEK293T cells [1]; 2-pentanone 30 μM) | concentration of the cAMP (HEK293T cells [1]; 2-pentanone 100 μM) | concentration of the cAMP (HEK293T cells [1]; 2-pentanone 300 μM) | concentration of the cAMP (HEK293T cells [1]; 2-pentanone 1000 μM) | concentration of the cAMP (HEK293T cells [1]; 2-pentanone 3000 μM) | concentration of the cAMP (HEK293T cells [2]; cyclohexanone 0 μM) | concentration of the cAMP (HEK293T cells [2]; cyclohexanone 30 μM) | concentration of the cAMP (HEK293T cells [2]; cyclohexanone 100 μM) | concentration of the cAMP (HEK293T cells [2]; cyclohexanone 1000 μM) | concentration of the cAMP (HEK293T cells [2]; cyclohexanone 3000 μM) | concentration of the cAMP (HEK293T cells [3]; vanillic acid 0 μM) | concentration of the cAMP (HEK293T cells [3]; vanillic acid 0.3 μM) | concentration of the cAMP (HEK293T cells [3]; vanillic acid 1 μM) | concentration of the cAMP (HEK293T cells [3]; vanillic acid 3 μM) | concentration of the cAMP (HEK293T cells [3]; vanillic acid 10 μM) | concentration of the cAMP (HEK293T cells [3]; vanillic acid 30 μM) | further results |
| --- | --- | --- | --- | --- | --- | --- | --- | --- | --- | --- | --- | --- | --- | --- | --- | --- | --- | --- |
| B1 | 0.0187 | 0.0220 | 0.0270 | 0.0520 | 0.0775 | 0.0916 | – | – | – | – | – | – | – | – | – | – | – | concentration of the cAMP compared with Rho-myc-Olfr168 (in words) (HEK293T cells [1]; 2-pentanone, Table 6): much greater |
| B2 | – | – | – | – | – | – | 0.0282 | 0.0280 | 0.0250 | 0.0290 | 0.0916 | – | – | – | – | – | – | concentration of the cAMP compared with Rho-myc-olfr15 (in words) (HEK293T cells [2]; cyclohexanone, Table 7): much greater |
| B3 | 0.0215 | 0.0170 | 0.0170 | 0.0280 | 0.0400 | 0.0444 | – | – | – | – | – | – | – | – | – | – | – | – |
| B4 | – | – | – | – | – | – | – | – | – | – | – | 0.014 | 0.070 | 0.076 | 0.127 | 0.067 | 0.071 | – |
| B5 | – | – | – | – | – | – | – | – | – | – | – | 0.075 | 0.166 | 0.160 | 0.192 | 0.162 | 0.187 | concentration of the cAMP compared with Rho-myc-Olfr609 (in words) (HEK293T cells [3]; vanillic acid, Table 8): much greater |
| B6 | – | – | – | – | – | – | 0.0173 | 0.0180 | 0.0210 | 0.0280 | 0.0444 | – | – | – | – | – | – | – |
